Here are results for one molecule from patent publication US8632989B1, “Mutant insulin degrading enzyme and methods of use” (University of Kentucky Research Foundation, priority 2011, dated 2014).

The nature of series [1]: ATPase activity, Pi release with acid-molybdate. In kind it is biochemical. The settings on record: 1 mM ATP as substrate. The method, then:
(§1) IDE activity was determined by measuring the increase in fluorescence that occurs when the enzyme cleaves the internally quenched fluorogenic substrate Abz-[…]-EDDnp (SEQ ID NO:3) at the R—K bond (Song et al., Journal of Biologial Chemistry 276, 1152-1155 (2001)). The reaction was followed on a SpectraMax Gemini XS fluorescence plate reader using an excitation and emission wavelengths of 318 nm and 419 nm, respectively. Initial velocities were determined using SoftMax Pro 4.0 and kinetic constants calculated using GraphPad Prism 4.0. ATPase activity was measured by following Pi release with acid-molybdate as described by Harder et al. (Harder et al., Biochemical Journal 298 (Pt 2), 395-401 (1994)).

For the next series, the target named is T1, Abz-GGFLRKHGQ-EDDnp (Rattus norvegicus, UniProt P35559).
T1 construct: hexahistidine (N); made in house; host or cells: Sf9 insect cells (baculovirus, pFastBac HTb)
T1 sequence (P35559 41-1019): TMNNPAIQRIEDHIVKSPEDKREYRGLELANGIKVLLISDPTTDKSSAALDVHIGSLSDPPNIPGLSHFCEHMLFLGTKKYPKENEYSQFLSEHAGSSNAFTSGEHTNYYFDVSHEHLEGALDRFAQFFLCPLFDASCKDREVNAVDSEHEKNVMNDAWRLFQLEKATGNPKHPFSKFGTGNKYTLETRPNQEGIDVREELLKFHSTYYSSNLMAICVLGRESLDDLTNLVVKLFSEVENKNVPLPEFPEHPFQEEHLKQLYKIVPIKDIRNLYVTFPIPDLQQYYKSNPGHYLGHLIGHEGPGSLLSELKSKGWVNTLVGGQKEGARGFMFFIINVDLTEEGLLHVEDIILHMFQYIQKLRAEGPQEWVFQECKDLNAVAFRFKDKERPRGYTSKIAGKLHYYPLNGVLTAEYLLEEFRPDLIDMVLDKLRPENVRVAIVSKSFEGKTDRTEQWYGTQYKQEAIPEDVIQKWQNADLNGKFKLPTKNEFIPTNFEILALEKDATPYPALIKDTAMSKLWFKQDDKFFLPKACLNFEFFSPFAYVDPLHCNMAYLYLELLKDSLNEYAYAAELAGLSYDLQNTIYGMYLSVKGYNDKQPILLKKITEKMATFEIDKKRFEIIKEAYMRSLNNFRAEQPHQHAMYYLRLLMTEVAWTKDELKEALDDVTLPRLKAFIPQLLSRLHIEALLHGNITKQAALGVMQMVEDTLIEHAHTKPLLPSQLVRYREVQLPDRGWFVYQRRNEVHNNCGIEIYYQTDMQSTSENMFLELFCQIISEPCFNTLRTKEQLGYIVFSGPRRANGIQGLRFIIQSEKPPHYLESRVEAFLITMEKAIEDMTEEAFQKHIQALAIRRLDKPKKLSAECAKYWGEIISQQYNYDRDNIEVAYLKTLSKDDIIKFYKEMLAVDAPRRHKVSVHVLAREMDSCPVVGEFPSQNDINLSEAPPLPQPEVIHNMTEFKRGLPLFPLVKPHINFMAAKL
As to the kind of experiment: Activation by ATP of Abz-[…]-EDDnp hydrolysis, IDE and ATP binding site mutants. It is filed as biochemical. The settings on record: 10 μM Abz-GGFLRKHGQ-EDDnp as substrate. As to the method: Activity was determined in 50 mM Tris-HCl, pH 7.4 with 10 μM Abz-[…]-EDDnp (SEQ ID NO:3) as substrate at the indicated concentrations of ATP (panel A), PPPi (panel B) or, TNP-ATP (panel C). Each reaction contained 0.5 μg of enzyme.
as §1

For a further series, the system named is Saccharomyces cerevisiae. The series can be described thus: IDE activity assay in yeast, spot halo assay for a-factor production. In kind it is cell-based. Particulars: spot halo assay on RC757 lawn. As to the method: Panel A depicts immunoblot of yeast-expressed IDE and IDE^K898A,K899A,S901A. Equivalent percentage amounts of total cellular extracts from yeast containing an empty expression vector or plasmids encoding IDE or the IDE^K898A,K899A,S901A mutant were analyzed by SDS-PAGE and immunoblotting using an IDE-specific antibody. […] An excess of MATa yeast were mixed with decreasing numbers of MATa cells deficient for Axl1p and Step 23p that were transformed with either an empty expression vector or a vector encoding IDE or IDE^K898A,K899A,S901A as indicated. Mating, which leads to colony growth, is dependent on production of mature a-factor pheromone by plasmid-encoded IDE. […] Concentrated samples of a-factor recovered from yeast bearing the indicated expression vector were spotted at the indicated dilutions on a lawn of RC757 MATa cells, which undergo growth arrest upon exposure to a-factor pheromone. […]
The assays take advantage of the ability of IDE, in lieu of the yeast M16 metallopeptidases Axl1p and Step 23p, to participate in the proteolytic maturation of yeast a-factor mating pheromone. […] Growth of diploid colonies, indicative of mating, was scored 3 days after incubation of plates at 30° C. […] Results of mating tests and halo assays were recorded by scanning plates with a Microtek flatbed scanner and importing digitized images into Photoshop and PowerPoint.

B1: IDE: Native rat insulin degrading enzyme (SEQ ID NO:1), expressed as hexahistidine fusion protein in Sf9 insect cells (protein, listed as Rattus norvegicus)
chain: MRNGLVWLLHPALPSTLHSILGARPPPVKRLCGFPKQIYSTMNNPAIQRIEDHIVKSPEDKREYRGLELANGIKVLLISDPTTDKSSAALDVHIGSLSDPPNIPGLSHFCEHMLFLGTKKYPKENEYSQFLSEHAGSSNAFTSGEHTNYYFDVSHEHLEGALDRFAQFFLCPLFDASCKDREVNAVDSEHEKNVMNDAWRLFQLEKATGNPKHPFSKFGTGNKYTLETRPNQEGIDVREELLKFHSTYYSSNLMAICVLGRESLDDLTNLVVKLFSEVENKNVPLPEFPEHPFQEEHLKQLYKIVPIKDIRNLYVTFPIPDLQQYYKSNPGHYLGHLIGHEGPGSLLSELKSKGWVNTLVGGQKEGARGFMFFIINVDLTEEGLLHVEDIILHMFQYIQKLRAEGPQEWVFQECKDLNAVAFRFKDKERPRGYTSKIAGKLHYYPLNGVLTAEYLLEEFRPDLIDMVLDKLRPENVRVAIVSKSFEGKTDRTEQWYGTQYKQEAIPEDVIQKWQNADLNGKFKLPTKNEFIPTNFEILALEKDATPYPALIKDTAMSKLWFKQDDKFFLPKACLNFEFFSPFAYVDPLHCNMAYLYLELLKDSLNEYAYAAELAGLSYDLQNTIYGMYLSVKGYNDKQPILLKKITEKMATFEIDKKRFEIIKEAYMRSLNNFRAEQPHQHAMYYLRLLMTEVAWTKDELKEALDDVTLPRLKAFIPQLLSRLHIEALLHGNITKQAALGVMQMVEDTLIEHAHTKPLLPSQLVRYREVQLPDRGWFVYQRRNEVHNNCGIEIYYQTDMQSTSENMFLELFCQIISEPCFNTLRTKEQLGYIVFSGPRRANGIQGLRFIIQSEKPPHYLESRVEAFLITMEKAIEDMTEEAFQKHIQALAIRRLDKPKKLSAECAKYWGEIISQQYNYDRDNIEVAYLKTLSKDDIIKFYKEMLAVDAPRRHKVSVHVLAREMDSCPVVGEFPSQNDINLSEAPPLPQPEVIHNMTEFKRGLPLFPLVKPHINFMAAKL
modifications: hexahistidine tag; wild-type Insulin Degrading Enzyme (IDE) from rat
Turning to B1, the “IDE-dependent ATPase activity” value in series [1] was “less than 1 nmol/min/mg IDE”. Moreover, the “activation by ATP” value with Abz-GGFLRKHGQ-EDDnp was “roughly 150 fold”. In addition, the “production of a-factor by yeast” value with Saccharomyces cerevisiae was “greater production of a-factor”.
